Data on 39 sequences can be found in the supplement of paper PMC7877785.

The nature of this series: self-splicing fitness, log relative to wild type (ln ratio); higher = more splicing; Tetrahymena group I intron in knt gene, E. coli kanamycin selection, DiMSum; sequences stand for … in CUCUCU…GGAGGGAAAAGUUAUCAGGCAUGCACCUGGUAGCUAGUCUUUAAACCAAUAGAUUGCAUCGGUUUAAAAGGCAAGACCGUCAAAUUGCGGGAAAGGGGUCAACAGCCGUUCAGUACCAAGUCUCAGGGGAAACUUUGAGAUGGCCUUGCAAAGGGUAUGGUAAUAAGCUGACGGACAUGGUCCUAACCACGCAGCCAAGUCCUAAGUCAACAGAUCUUCUGUUGAUAUGGAUGCAGUUCACAGACUAAAUGUCGGUCGGGGAAGAUGUAUUCUUCUCAUAAGAUAUAGUCGGACCUCUCCUUAAUGGGAGCUAGCGGAUGAAGUGAUGCAACACUGGAGCCGCUGGGAACUAAUUUGUAUGCGAAAGUAUAUUGAUUAGUUUUGGAGUACUCGUGGUCG
Summed up: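 A randomised library covering all eight P1ex-region intron nucleotides was built with the intron in the knt kanamycin-resistance gene on pET-22b(+) and held in E. coli BL21(DE3). Cells were grown overnight at 37°C or 30°C on LB agar, with or without 25 μg/mL kanamycin, plus 100 μg/mL carbenicillin, 50 μM IPTG and 0.2% rhamnose, and pooled colonies were amplicon-sequenced on an Illumina HiSeq 2500. DiMSum fitness is the error-weighted combination of wild-type-normalised replicate fold changes, kanamycin versus none.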

± gives the uncertainty stated by the source.

UCACAGCAAUAUUACGUCGA: the “self-splicing fitness (ln)” value is, setting by setting: (30 °C) -0.572 ± 0.068; (37 °C) -0.734 ± 0.08.

Regarding UCACAGCAAUAUUACGUCGC, the “self-splicing fitness (ln)” value reads like this: (30 °C) -2.99 ± 0.19; (37 °C) -2.13 ± 0.19.

Regarding UCACAGCAAUAUUACGUGAU, the “self-splicing fitness (ln)” value (30 °C) is -3.64 ± 0.12 and the “self-splicing fitness (ln)” value (37 °C) was -2.76 ± 0.15.

As for UCACAGCAAUAUUACGUGCG, the “self-splicing fitness (ln)” value by setting is: (30 °C) -0.577 ± 0.056; (37 °C) -0.105 ± 0.069.

Regarding UCACAGCAAUAUUACGUGUG, the “self-splicing fitness (ln)” value by setting is: (30 °C) -4.09 ± 0.15; (37 °C) -2.13 ± 0.1.

For UCACAGCAAUAUUACGUUAU, the “self-splicing fitness (ln)” value runs as follows: (30 °C) -3.61 ± 0.12; (37 °C) -2.75 ± 0.12.

As for UCACAGCAAUAUUACGUUUC, the “self-splicing fitness (ln)” value reads like this: (30 °C) -3.8 ± 0.19; (37 °C) -3.02 ± 0.21.

For the sequence UCAGAGCAAUAUUACGAAAG, the “self-splicing fitness (ln)” value was -2.84 ± 0.36 (30 °C) and -1.6 ± 0.38 (37 °C).

As to UCAGAGCAAUAUUACGAGAG, the “self-splicing fitness (ln)” value runs as follows: (30 °C) -3.72 ± 0.27; (37 °C) -3.27 ± 0.42.

For UCAGAGCAAUAUUACGAUAA, the “self-splicing fitness (ln)” value (37 °C) is -2.46 ± 0.41.

In the case of UCAGAGCAAUAUUACGAUAG, the “self-splicing fitness (ln)” value reads like this: (30 °C) -4.05 ± 0.39; (37 °C) -2.38 ± 0.39.

For the sequence UCAGAGCAAUAUUACGAUAU, the “self-splicing fitness (ln)” value (37 °C) was -2.32 ± 0.33.

Regarding UCAGAGCAAUAUUACGCACA, the “self-splicing fitness (ln)” value by setting is: (30 °C) -1.74 ± 0.29; (37 °C) 0.554 ± 0.43.

Regarding UCAGAGCAAUAUUACGCAGU, the “self-splicing fitness (ln)” value is -0.644 ± 0.22 (30 °C) and -1.83 ± 0.41 (37 °C).

Take UCAGAGCAAUAUUACGCUAA: where the note is “37 °C”, the “self-splicing fitness (ln)” value was determined as 1.19 ± 0.3.

As for UCAGAGCAAUAUUACGCUGA, the “self-splicing fitness (ln)” value reads like this: (30 °C) -3.04 ± 0.34; (37 °C) -2.1 ± 0.37.

UCAGAGCAAUAUUACGGUCG: the “self-splicing fitness (ln)” value reads like this: (30 °C) -2.95 ± 0.16; (37 °C) -1.32 ± 0.14.

As to UCAGAGCAAUAUUACGGUUA, the “self-splicing fitness (ln)” value runs as follows: (30 °C) -2.88 ± 0.26; (37 °C) -2.05 ± 0.22.

For the sequence UCAGAGCAAUAUUACGGUUC, the “self-splicing fitness (ln)” value (30 °C) is -3.72 ± 0.33 and the “self-splicing fitness (ln)” value (37 °C) was -1.84 ± 0.21.

As for UCAGAGCAAUAUUACGGUUG, the “self-splicing fitness (ln)” value by setting is: (30 °C) -3.9 ± 0.31; (37 °C) -2.35 ± 0.26.

In the case of UCAGAGCAAUAUUACGGUUU, the “self-splicing fitness (ln)” value (30 °C) was -3.76 ± 0.28 and the “self-splicing fitness (ln)” value (37 °C) is -2.07 ± 0.18.

On to UCAGAGCAAUAUUACGUGAU, for which the “self-splicing fitness (ln)” value is, setting by setting: (30 °C) -3.03 ± 0.32; (37 °C) -2.94 ± 0.26.

Turning to UCAGAGCAAUAUUACGUGGC, the “self-splicing fitness (ln)” value (30 °C) was -3.85 ± 0.25 and the “self-splicing fitness (ln)” value (37 °C) is -2.32 ± 0.26.

With UCAGAGCAAUAUUACGUUCA, the “self-splicing fitness (ln)” value is, setting by setting: (30 °C) -1.71 ± 0.27; (37 °C) -2.48 ± 0.39.

UCAGAGCAAUAUUACGUUGA: the “self-splicing fitness (ln)” value runs as follows: (30 °C) -2.33 ± 0.12; (37 °C) -1.54 ± 0.14.

Consider UCAUAGCAAUAUUACGAAGU, for which the “self-splicing fitness (ln)” value runs as follows: (30 °C) -3.43 ± 0.16; (37 °C) -3.51 ± 0.39.

In the case of UCAUAGCAAUAUUACGACUU, the “self-splicing fitness (ln)” value was -3.87 ± 0.28 (30 °C) and -2.42 ± 0.39 (37 °C).

As to UCAUAGCAAUAUUACGAGAA, the “self-splicing fitness (ln)” value reads like this: (30 °C) -2.05 ± 0.3; (37 °C) -2.55 ± 0.36.

Regarding UCAUAGCAAUAUUACGAUCA, the “self-splicing fitness (ln)” value was -1.3 ± 0.13 (30 °C) and -0.941 ± 0.16 (37 °C).

As for UCAUAGCAAUAUUACGAUCC, where the note is “37 °C”, the “self-splicing fitness (ln)” value is -1.7 ± 0.41.

Take UCAUAGCAAUAUUACGCAGU: the “self-splicing fitness (ln)” value (30 °C) is -4.03 ± 0.36 and the “self-splicing fitness (ln)” value (37 °C) was -3.4 ± 0.31.

On to UCAUAGCAAUAUUACGCCCA, for which the “self-splicing fitness (ln)” value (30 °C) is -2 ± 0.21 and the “self-splicing fitness (ln)” value (37 °C) was -0.939 ± 0.18.

With UCAUAGCAAUAUUACGCCCG, the “self-splicing fitness (ln)” value (30 °C) is -0.515 ± 0.21 and the “self-splicing fitness (ln)” value (37 °C) was -0.292 ± 0.3.

For the sequence UCAUAGCAAUAUUACGCGGC, the “self-splicing fitness (ln)” value (30 °C) is -3.53 ± 0.44.

In the case of UCAUAGCAAUAUUACGCUAC, the “self-splicing fitness (ln)” value was -2.17 ± 0.21 (30 °C) and -3.42 ± 0.29 (37 °C).

Take UCAUAGCAAUAUUACGCUAU: the “self-splicing fitness (ln)” value was -2.88 ± 0.39 (30 °C) and -2.08 ± 0.47 (37 °C).

Consider UCAUAGCAAUAUUACGGAAA, for which the “self-splicing fitness (ln)” value is, setting by setting: (30 °C) -2.84 ± 0.41; (37 °C) -2.4 ± 0.28.

As for UCAUAGCAAUAUUACGGACA, the “self-splicing fitness (ln)” value was -2.48 ± 0.21 (30 °C) and -0.42 ± 0.15 (37 °C).

With UCAUAGCAAUAUUACGGACG, the “self-splicing fitness (ln)” value (30 °C) was -1.17 ± 0.15 and the “self-splicing fitness (ln)” value (37 °C) was -1.11 ± 0.17.
